Reference: PMC2615687 (2008)

T1: myelin oligodendroglial glycoprotein (MOG) peptide on I-Ab (mouse)
T1 peptide: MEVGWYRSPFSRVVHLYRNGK


Legend:
[1] = target: T1, myelin oligodendroglial glycoprotein …; experiment: cytokine release
[2] = target: T1, myelin oligodendroglial glycoprotein …; experiment: in vivo

binding result [1] | binding result [2] | Binder
recognises | – | 1MOG9 (TCR) alpha TRAV12D-3*01 TRAJ17*01 CDR3: CALSAANSAGNKLTF beta TRBV13-2*01 TRBJ2-4*01 CDR3: CASGDWGGEDTLYF
– | recognises | 1MOG23 (TCR) alpha TRAV12D-2*02 TRAJ18*01 CDR3: CALSDRGSALGRLHF beta TRBV19*01 TRBJ2-3*01 CDR3: CASSIADSSAETLYF
recognises | – | 2MOG10 (TCR) alpha TRAV14-2*01 TRAJ21*01 CDR3: CAAASRIYNVLYF beta TRBV5*01 TRBJ2-5*01 CDR3: CASNGLGEEDTQYF
